{"source": "paper PMC8858996", "about": "(iScience, 2022)", "key": {"[1]": {"biological_target": "EphA2 WT tagged at the C-terminus with mTURQ or EYFP (UniProt P29317)"}, "dimer (4)": {"biological_target": "dimer (4)", "assay": "ITC"}, "CGA-WLA-YRPK dimer (5)": {"biological_target": "CGA-WLA-YRPK dimer (5)", "assay": "ITC"}, "CGA-WLA-YR dimer (N-ter)": {"biological_target": "CGA-WLA-YR dimer (N-ter)", "assay": "ITC"}, "FRET or BRET": {"biological_target": "the molecule itself", "assay": "FRET or BRET"}}, "data": [{"molecule": "ephrinA1-Fc (ephrinA1 extracellular region fused to the dimeric Fc portion of an antibody) (Fc fusion)", "values": [{"measurement": "EC50 of EphA2 autophosphorylation on Y588, endogenous EphA2 in PC3 cells, 15 min", "setting": "[1]", "result": 3.8, "unit": "nM"}]}, {"molecule": "human EphA2 LBD (residues 28–200) (from UniProt P29317 28-200) (domain or fragment)", "values": [{"measurement": "Kd", "setting": "dimer (4)", "result": 104, "unit": "nM"}, {"measurement": "stoichiometry N (EphA2 LBD per peptide)", "setting": "dimer (4)", "result": 2}, {"measurement": "Kd", "setting": "CGA-WLA-YRPK dimer (5)", "result": 21, "unit": "nM"}]}, {"molecule": "human EphA2 ligand-binding domain (residues 28-200) (from UniProt P29317 28-200) (domain or fragment)", "values": [{"measurement": "stoichiometry N", "setting": "CGA-WLA-YR dimer (N-ter)", "result": 2}]}, {"molecule": "EphA2 L223R/L254R/V255R tagged at the C-terminus with mTURQ or EYFP (receptor) AQGKEVVLLDFAAAGGELGWLTHPYGKGWDLMQNIMNDMPIYMYSVCNVMSGDQDNWLRTNWVYRGEAERIFIELKFTVRDCNSFPGGASSCKETFNLYYAESDLDYGTNFQKRLFTKIDTIAPDEITVSSDFEARHVKLNVEERSVGPLTRKGFYLAFQDIGACVALLSVRVYYKKCPELLQGLAHFPETIAGSDAPSRATVAGTCVDHAVVPPGGEEPRMHCAVDGEWRRPIGQCLCQAGYEKVEDACQACSPGFFKFEASESPCLECPEHTLPSPEGATSCECEEGFFRAPQDPASMPCTRPPSAPHYLTAVGMGAKVELRWTPPQDSGGREDIVYSVTCEQCWPESGECGPCEASVRYSEPPHGLTRTSVTVSDLEPHMNYTFTVEARNGVSGLVTSRSFRTASVSINQTEPPKVRLEGRSTTSLSVSWSIPPPQQSRVWKYEVTYRKKGDSNSYNVRRTEGFSVTLDDLAPDTTYLVQVQALTQEGQGAGSKVHEFQTLSPEGSGNLAVIGGVAVGVVLLLVLAGVGFFIHRRRKNQRARQSPEDVYFSKSEQLKPLKTYVDPHTYEDPNQAVLKFTTEIHPSCVTRQKVIGAGEFGEVYKGMLKTSSGKKEVPVAIKTLKAGYTEKQRVDFLGEAGIMGQFSHHNIIRLEGVISKYKPMMIITEYMENGALDKFLREKDGEFSVLQLVGMLRGIAAGMKYLANMNYVHRDLAARNILVNSNLVCKVSDFGLSRVLEDDPEATYTTSGGKIPIRWTAPEAISYRKFTSASDVWSFGIVMWEVMTYGERPYWELSNHEVMKAINDGFRLPTPMDCPSAIYQLMMQCWQQERARRPKFADIVSILDKLIRAPDSLKTLADFDPRVSIRLPSTSGSEGVPFRTVSEWLESIKMQQYTEHFMAAGYTAIEKVVQMTNDDIKRIGVRLPGHQKRIAYSLLGLKDQVNTVGIPI", "values": [{"measurement": "stoichiometry N", "setting": "FRET or BRET", "result": 2}]}]}
